# Assay results: the nanobody polyreactivity screen of Harvey et al. (2022)
# Assay: yeast display, Sf9 membrane polyspecificity reagent, FACS + sequencing; frameworks hold sequencing errors
# Summary of the method: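 Nanobodies came from a synthetic yeast display library in Saccharomyces cerevisiae BJ5465, induced with galactose for 36–48 hours and stained for 1 hour at 4 °C with 10% biotinylated, detergent-solubilized Sf9 membrane reagent. Cells were enriched on streptavidin microbeads and then FACS-sorted, with low and high (top ~1%) gates set on anti-HA fluorescence for expression and streptavidin fluorescence for reagent binding. Each polyreactivity label reflects the gate a clone came from. Genes were amplified by colony PCR, sequenced by MiSeq 2 × 250 and filtered by CDR length.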
row,Sequence,polyreactivity (PSR sort gate)
1,QVQLVESGGCLVQARGSLRLSCAASGFIFRSYAMGWYRPAPGKERELVAAISRSGGSTYYADSVKGRFTISRDNAKNTVYLQMNSLKPEDTAVYYCAAEYRIPYFFTYVYWGQGTKVTVSS,high polyreactivity
2,QVQLVESGGCLVQARGTLRLSCASSGRTIYLYAMPWYRQAPAKERELVAAITKSGGSTYYADSVKGRFTISRDIAMNTVYVQMNSLKPQDTAFYYCYKDLSSTNLDYWGQGTQFTVSS,low polyreactivity
3,QVQLVESGGCLVQEGGSLRLSCPASGSIFDDYAMGWYRQAPGKERELVAAISDSCGSTYYADSVKGRFTISRDNAKNTVYLQMNSLNQEDTAVYYCNADRDDDYDYWGEGTQVTVSS,low polyreactivity
4,QVQLVESGGCLVQSGGRLRLSCAASGRIFYPYVMGWYRQAPGKEREFVAAITRSGGSTNADSVKGLFTISRDNAKNTVYLLLNSLKPEDTAVYYCARRVNRRYPFYQRDYWGQGTQVTVSS,high polyreactivity
5,QVQLVESGGCLVQSGGSLRLSCAATGSTFGRNAMGWSRQAPGKESELVAAISRGGGITYYADSVKGRFTISRDNAKNTVYFQMNSLKPEDTAVYYCNAYLSKYFRYDYWGQGTQVTVSS,high polyreactivity
6,QVQLVESGGCSVQAGGSLRLSCAAAGRIFSYYAMGWYRQAPGKERELVAAITSGGRTYYADSVKGRFTISRDNAKTTVYLQMNSLKPEDTAVYYCAVGVRNQYYYWGQGTQVTVSS,high polyreactivity
7,QVQLVESGGDLVQAGGSLRLSCAASGITFRRYTMGWYRQAPGKERELVAAISSGGSTNYADSVKGRFTISRDNAKNTVYLQMNSLKPEDTAVYYCAATRRYIQYGYDYWGQGTQVTVSS,high polyreactivity
8,QVQLVESGGFLVQAGGSHRLSCAASGFTFQSNSMVWYRQAPGKERELVATITYSGGRTYYADSVKGRFTISRDNAKNTVYLQMNSLKPEDTAVYSCAARLAPLYRTYYYWGQGTQVTVSS,low polyreactivity
9,QVQLVESGGGEVQAGGSLRLSCAASGNIFVKYNMGWYRQAPGKERKLVAAIRWSGGTTNYADSVKGRFTISRDNAKSTVYLQMNSLKPEDTAVYYCNTGYWFFGYNEYDYWGQGTQVTVSS,low polyreactivity
10,QVQLVESGGGFDQARCSLRLSCPACASILREYAMGWYRQAPGKERELVATISRDGSTNYADSVKGRFTISRDNAKNTVYLQMNSLKPEDTAVYYCNTDLTYPYPNVEVLVYGFKLDYWGQGTQVTVSS,low polyreactivity
11,QVQLVESGGGFVQAGGSLRLSCAASGFTFKAYAMGLYRQAPGKERELVATINRSGTGTYYADSVKGRFTISRDYAKNTVYLLMNSLKPEDTAVYYCNKRSHHNYYTYDYWGQGTQVTVSS,high polyreactivity
12,QVQLVESGGGFVQAGGSLRLSCAASGRIFYGYAMGWYRQAPGKERELVAAISSGGITYYADSVKGRFTISRDNAKNTVYLQMNSLKPEDTAVYYCAADWAYYVASYLYYTFDYWGQGTQVTVSS,low polyreactivity
13,QVQLVESGGGFVQAGGSLRLSCAASGRTFRKYAMGWYRQAPGKERELVAAITSSGGSTYYADSVKGRFTISRDNAKNTVYLQMNSLKPEDTAVYYCAAGRHSEDNYWGQGTQVTVSS,high polyreactivity
14,QVQLVESGGGFVQAGGSLRLSCAASGRTFSYYAMGCYRQAPGKERELVASISGGGRTNYADSVKGRFTISRDNAKNTVYLQMNSLKAEDTAVYYCAARYEVRHTLYNYWGQGTQVTVSS,high polyreactivity
15,QVQLVESGGGFVQAGGSLRLSCAASGRTFWNYAMGWYRPAPGKERELVAVIRFSDGSTYYADSVKGRFTISRDHAKNTVYLQMNSLKPEDTAVYYCAAKGPRRWGSGFDYWGQGTQVTVSS,low polyreactivity
16,QVQLVESGGGFVQAGGSLRLSCAASGSIFDPYAMGWYIQAPGKERELVAAINWSGDSTYYADSVKGRFTISRDNAKNTVYLQMYSLKPEDTAVYYCAADPTDDTHLYYYWRQGTQVTVSS,low polyreactivity
17,QVQLVESGGGFVQAGGSLRLSCAASGSIFDYYTMGWYRQAPGKERELVATIRSGDSTNYADSVKGRFTISRDNAKNTVYLPMNSLKPEDPAVYYCAADYGYQDDYWGQGTQVTVSS,low polyreactivity
18,QVQLVESGGGFVQAGGSLRLSCAASGSIFYTYVMGWYRQAPGKERELVAAITWSGGSTYYADSVKGRFTISRDNAKNTVYLQMNSLKPEDTAVYYCAAVRGYRSSKYDYWGQGTQVTVSS,high polyreactivity
19,QVQLVESGGGFVQAGGSLRLSCAASGSIIKRNAMGWYRQAPGKERELVASISSGGSTKYADSVKGRFTLSRDNAKNTVYLQMNSLKPEDTAVYYCAKRSSQTRRAYDYWGQGTQVTVSS,low polyreactivity
20,QVQLVESGGGFVQAGGSLRLSCAASGSTFAYYAMGWDRQAPGKERELVAAITRGGRTYYADSVKGRFTISRDNPKNTVYLQMNSQKPDDTAVYYCNARKYTWYSSRFIRFDYWGQGTQVTVSS,high polyreactivity
21,QVQLVESGGGFVQAGGSLRLSCAASGSTLPYYAMGWYRQAHGKERELVADITARGGTYYADSVKGRFTISRDNAKNTVYLQMNSLKPEDTAVYYCAAAYSLWQFYWDQGYDYWGQGTQVTVSS,high polyreactivity

row,Sequence,polyreactivity (PSR sort gate)
1,QVQLVESGGGFVQAGGSLRLSCAASGVTYGGYAMGWYRQAPGKERELVAAITGSAGNTFYADSVKGRFTISRDNAKHTVYLQMNSLKPEDTAVYYCANTWYPWSRYGYYGRYDSWGLGTQVTVSS,low polyreactivity
2,QVQLVESGGGFVQAGGSLRLSCAASGYIFGIYAMGWYRQAPGKERELVAAISTSGGSTYYADSVKGRFTISRDNAKNTVYLQMNSLKPEDTAVYYCARPTTYGYYYWGQGTQVTVSS,high polyreactivity
3,QVQLVESGGGFVQAGGSLRLSCAAYGRTFGRYAMGWYRQAPGKERELVAAIRSGGSTYYADSVKGRFTISRDNAKNTVYLQMNSLKPEDTAVYYCAADIARHLTVFAYYRLDYWGQGTQVTVSS,low polyreactivity
4,QVQLVESGGGFVQAGGSLRLTCAASALTFQYNAMGWYRQAPGKETELVAAISRSGGRTYYADSVKGRFTISRDNAKNTVYLQMNSLKPEDTAVYYCARRGGVVYSSGYNYLGQGTQVTVSS,high polyreactivity
5,QVQLVESGGGFVQARGSLRLSCAASGSIFWLYAMGWYSQAPGKERELVAAISWSTGGTYYADSVKGRFTISRDNAKNTVYLQMNSQKPEDTAVYYCNKLWVGKFKRYEFGYWGQGTQVTVSS,low polyreactivity
6,QVQLVESGGGIDQAGGSLRLSCAASGSNFYTYAMGWYRQAPGKEREFVAAITRGGARTYYADSVKWRFTISRDNAKNTVYLQMNSLKPEDTAVYYCAKLGKATTQVGSDYWGQGTQVSVSS,low polyreactivity
7,QVQLVESGGGIDQAGGSLRLSCAASGSTFPRYAMGWYRQAPGKERELVAAISRSGGSTYYADSVKWRFTISRDNAKNTVDLQMNCLKPEDTAVYYCAGRYERGSYKYDYWGQGTEVTVSS,high polyreactivity
8,QVQLVESGGGIVHAGGSLRLSCAASGSTFDSYARGWYRQAPGKERELVAAITDSGSSTYYADSVKGRFTISRDNAKNTVYLQMNSLKPEDSAVYYCANYDYHGWSYYRYDYWGQGTQVTVSS,low polyreactivity
9,QVQLVESGGGIVQAGGILRLSSAASGRIFLGYAMGWSRQAPGKERELVASISGPAGSTNYADSVKGRFTISRDNAKNTVYLQMNSLKPEDTAVYYCAAEERYAYRYDYWGQGTQVTVSS,high polyreactivity
10,QVQLVESGGGIVQAGGRLRLRCAASGFTFGRYAMGWYRQEPGKEREFVAAITWSGGGTYYADSVKGRFTISRDNAKNTVYLQMNSLKPEDTAVYYCAADRRAYGGGYLGQGTQVTVSS,high polyreactivity
11,QVQLVESGGGIVQAGGRLRLSCAASGITFRFYAMGWYRQAPGKERELVAVISRGGGTTYYADSVKGRFTISRDNEKNTVYLEMNSLKPEDTEVFYCNAVFAWYRSDEYDYWGQGTLVTVSS,high polyreactivity
12,QVQLVESGGGIVQAGGRLRLSCAASGMIFYFYALGWYRPAPGKERELVAAITSGARTYYADSVKGRFTISRDNAKNTVYLQINSLKPEDTAVYYCAADVKRDRVWGGDYWGQGTQVTVSS,low polyreactivity
13,QVQLVESGGGIVQAGGRLRLSCAASGRTSAVNAMVWYRQAPGKERELVAAITKSGGRTYYADSEKGRFTISRDNAKNTVYLQMNSLKPEDTAVYYCATSLLSRYGMDYWGQGTQVTVSS,high polyreactivity
14,QVQLVESGGGIVQAGGSIRLSCAASGRIFRYYAMGWYRQAPGKERELVATISRSGGSTFYAESVKGRFTISRDNAKNTVYLQMNSLIPEDTAVYYCNARYQTGGYGYWGQGTQVTVSS,high polyreactivity
15,QVQLVESGGGIVQAGGSLPLSCAASGSTYNSYAMGWYRQAPGKDRELVAGISYIGGRTYYADSVKGRFTISRDNAKNTVYLQMNSLKPEDTAVYYCAAVYWYGRRKYYSWGQGTQVTVSS,high polyreactivity
16,QVQLVESGGGIVQAGGSLPLSSAASGSTFPYNTMGWYIQAPGKERELVAAISQRGGSTYADSVKGRFTISRDNAKNTVYLEMNSLKPEDTAVYYCNKRNVYYSYPFDYDYWGQGTQVTVCS,low polyreactivity
17,QVQLVESGGGIVQAGGSLRLRCAASGSIFRFNAMGWYRQAPGKERDLVAAISSSGSSTYYADSVKGRFTISRDNSKNTVYLQMNSLKPEDTAVYYSAARNSYGNWRYYYWGQGTQVTVSS,high polyreactivity
18,QVQLVESGGGIVQAGGSLRLSCAASGFTCGPYAMGWYRQAPGKERELVATIRSGDSTNYADSVKGRFTISRDNAKNTVYLQMNSLKPEDTAVYYCARDARASARRKRYDYWGQGTQVTVSS,low polyreactivity
19,QVQLVESGGGIVQAGGSLRLSCAASGFTFGAYAMGWSRQAPGKEGELVASISWSGGSTYYADSVKGRFTISRDHAKNTVNLQMNSLKPEDTAVYYCNKDFVYPDDDGLFDYWGQGTQETVSS,low polyreactivity
20,QVQLVESGGGIVQAGGSLRLSCAASGFTFYRYAMGWYRQAPGKERELVAAITWSGGSTYYADSVKGRFTISRDNAKNTVYLQMNSLKPEDTAVYYCAADIYDGGFDYWGQGTQVTVSS,low polyreactivity
